In paper PMC4786644, “The HMGB1 protein induces a metabolic type of tumour cell death by blocking aerobic respiration” (Nature Communications, 2016):

Target: T1, human pyruvate kinase isoform M2 (PK M2) (human, UniProt P14618-1 1-531)
T1 construct: Pyruvate kinase isoform M2, human; used at 2 uM in solution
Assay: ultrafiltration; equimolar HMGB1 and PK M2 (2 uM each) mixed in 300 ul, filtrated (14000 g, 4 C) to 15 ul in an Amicon Ultra 0.5 ml 30 k device; filtrate and retentate analysed by Western blot; HMGB1 and PKM2 also analysed alone
Details: both partners purified

T1 sequence (P14618 whole entry, canonical isoform): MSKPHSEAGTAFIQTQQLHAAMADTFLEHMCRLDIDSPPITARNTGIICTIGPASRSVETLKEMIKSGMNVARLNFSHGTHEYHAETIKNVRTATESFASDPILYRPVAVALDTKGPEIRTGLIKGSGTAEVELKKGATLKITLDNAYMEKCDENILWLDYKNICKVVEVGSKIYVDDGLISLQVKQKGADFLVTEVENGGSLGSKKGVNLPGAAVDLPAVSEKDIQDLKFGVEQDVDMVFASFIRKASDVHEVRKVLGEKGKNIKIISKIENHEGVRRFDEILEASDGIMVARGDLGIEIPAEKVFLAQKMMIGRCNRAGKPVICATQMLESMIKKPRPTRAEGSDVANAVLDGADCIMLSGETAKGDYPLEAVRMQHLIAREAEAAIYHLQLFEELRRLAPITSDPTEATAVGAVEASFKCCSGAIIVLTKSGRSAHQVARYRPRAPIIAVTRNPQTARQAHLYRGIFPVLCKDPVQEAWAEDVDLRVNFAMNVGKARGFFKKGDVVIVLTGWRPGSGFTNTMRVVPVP

B1: recombinant human HMGB1 protein (high-mobility group box 1) (natural protein, UniProt P09429 1-215, looked up)
chain: MGKGDPKKPRGKMSSYAFFVQTCREEHKKKHPDASVNFSEFSKKCSERWKTMSAKEKGKFEDMAKADKARYEREMKTYIPPKGETKKKFKDPNAPKRPPSAFFLFCSEYRPKIKGEHPGLSIGDVAKKLGEMWNNTAADDKQPYEKKAAKLKEKYEKDIAAYRAKGKPDAAKKGVVKAEKSKKKKEEEEDEEDEEDEEEEEDEEDEDEEEDDDDE
notes: High-mobility group box 1 protein, human, recombinant; the only recombinant human HMGB1 named is from Sigma-Aldrich; also called rhHMGB1; source: bought: Sigma-Aldrich (recombinant human HMGB1; human HMGB1 protein produced in E. coli)
binding result: binds
